We go through two molecules from patent US20230272011A1 (AVACTA LIFE SCIENCES, published 2023).

The target of assay [1] is T1, mouse serum albumin (mouse, UniProt P07724 25-608).
T1 construct: also called MSA
Briefly: binding ELISA on coated MSA, pH 7.4. On the procedure:
(§1) After saturation with 5% PBS Casein pH 7.5, plates were washed and a dilution of AFFIMER® trimers or controls were incubated on the plate for 90 minutes. Plates were then washed, and a biotinylated polyclonal antibody anti-cystatin A (R&D Systems) was added for 1 hour. Plates were washed and AFFIMER® ILFs were detected using streptavidin-HRP. After a last washing step, TMB was added for the development of the experiment, and the plates were read at 450 nm.
On the technique in general: In an ELISA, binding on a coated surface is turned into a signal by an enzyme label.

Assay [2] has as its target T2, human serum albumin (human, UniProt P02768 25-609).
T2 construct: mature; Bought protein; biotinylated in the Octet and HTRF assays; also called HSA; HuSA
Briefly: Biacore, immobilised HSA, running buffer pH 6.0. An excerpt: (§2) […] Fc2-1, Fc3-1 and Fc4-1 kinetic data was blank subtracted and fit to a 1:1 Langmuir binding model (BIAcore Evalution software; GE) to calculate KD values.
For orientation: Surface plasmon resonance follows binding to a sensor surface in real time, without labels.

Assay [3] addresses T3, human PD-L1-Fc (R&D Systems) chimeric protein (human, UniProt Q9NZQ7 19-239).
T3 construct: Bought reagent; also called rhPD-L1-Fc; huPD-L1; Fc part of the bought chimera not given, not described
Briefly: Biacore single cycle kinetics on human PD-L1 Fc.

Assay [4] has as its target T2, human serum albumin. As to the kind of experiment: Biacore, immobilised HSA, running buffer pH 7.4. As to the method: Affinities for mouse, human, and cynomolgus serum were also measured at pH 7.4 for four (4) AFFIMER® binders using surface plasmon resonance (SPR) (FIG. 5, Table 5). […] A concentration titration of AFFIMER® monomers was run as analyte at a flow rate of 30 μl/min or 60 μl/min. Fc2-1, Fc3-1 and Fc4-1 kinetic data was blank subtracted and fit to a 1:1 Langmuir binding model (BIAcore Evalution software; GE) to calculate KD values.

Assay [5] has as its target T1, mouse serum albumin. Briefly: Biacore, immobilised MSA, pH 6.0.
Source text: as §2

Assay [6] deals with T2, human serum albumin. As to the kind of experiment: binding ELISA on coated HSA, pH 7.4. On the procedure: as §1

Broadly, the EC50 is the concentration at which the effect is half-maximal. Low values mean greater potency, high ones weaker potency. A word on the Kd: it is the equilibrium constant for the complex coming apart. A low value points to higher affinity. In general, koff refers to the rate constant with which the complex falls apart. Read a low koff as slow dissociation. A word on the kon: it is a measure of how fast the partners come together.

T3 sequence (Q9NZQ7 19-239, change not shown): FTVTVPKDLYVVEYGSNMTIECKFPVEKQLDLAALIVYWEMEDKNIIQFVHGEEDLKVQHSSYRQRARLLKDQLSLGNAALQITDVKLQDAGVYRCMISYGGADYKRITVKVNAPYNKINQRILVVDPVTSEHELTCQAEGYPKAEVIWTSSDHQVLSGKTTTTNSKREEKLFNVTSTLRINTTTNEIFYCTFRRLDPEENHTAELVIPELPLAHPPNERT
T1 sequence (P07724 25-608 limits assumed): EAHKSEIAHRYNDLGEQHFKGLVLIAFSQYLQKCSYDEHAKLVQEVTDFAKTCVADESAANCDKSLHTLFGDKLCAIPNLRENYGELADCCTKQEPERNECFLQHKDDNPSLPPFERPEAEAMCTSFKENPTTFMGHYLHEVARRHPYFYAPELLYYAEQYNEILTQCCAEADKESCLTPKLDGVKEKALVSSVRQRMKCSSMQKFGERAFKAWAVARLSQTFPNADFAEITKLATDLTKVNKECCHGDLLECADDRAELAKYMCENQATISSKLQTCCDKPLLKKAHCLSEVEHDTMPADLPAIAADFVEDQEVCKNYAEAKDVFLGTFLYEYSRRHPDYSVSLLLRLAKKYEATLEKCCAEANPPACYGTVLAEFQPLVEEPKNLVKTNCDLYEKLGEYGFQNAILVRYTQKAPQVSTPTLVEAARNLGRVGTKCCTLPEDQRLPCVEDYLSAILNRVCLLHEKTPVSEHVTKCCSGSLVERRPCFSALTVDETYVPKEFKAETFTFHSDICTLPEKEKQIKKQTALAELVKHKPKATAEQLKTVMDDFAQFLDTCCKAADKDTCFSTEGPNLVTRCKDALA

B1: AVA04-251 XT61 (designed binder)
chain: MIPRGLSEAKPATPEIQEIVDKVKPQLEEKTNETYGKLEAVQYKTQVLAREGRQDWVLSTNYYIKVRAGDNKYMHLKVFNGPWVPFPHQQLADRVLTGYQVDKNKDDELTGFAEAAAKEAAAKEAAAKEAAAKEAAAKEAAAKMIPRGLSEAKPATPEIQEIVDKVKPQLEEKTNETYGKLEAVQYKTQVLADWWQAKWPHSTNYYIKVRAGDNKYMHLKVFNGPYKVHQSSGGADRVLTGYQVDKNKDDELTGFAEAAAKEAAAKEAAAKEAAAKEAAAKEAAAKMIPRGLSEAKPATPEIQEIVDKVKPQLEEKTNETYGKLEAVQYKTQVLAREGRQDWVLSTNYYIKVRAGDNKYMHLKVFNGPWVPFPHQQLADRVLTGYQVDKNKDDELTGFHHHHHH
In the case of B1, the EC50 with mouse serum albumin [1] came out at 60.8 nM; with human serum albumin [6], 8.8 nM. Further, the Kd is 31.1 nM with human serum albumin [2], 0.298 nM in assay [3], 325 nM with human serum albumin [4] and 113 nM with mouse serum albumin [5]. In addition, the koff came out at 0.00308 s⁻¹ in the assay with human serum albumin [2], 0.000159 s⁻¹ in assay [3], 0.00758 s⁻¹ in the assay with human serum albumin [4] and 0.0337 s⁻¹ with mouse serum albumin [5]. Moreover, the kon was found to be 98800 M⁻¹ s⁻¹ in the assay with human serum albumin [2], 534000 M⁻¹ s⁻¹ in assay [3], 23300 M⁻¹ s⁻¹ with human serum albumin [4] and 297000 M⁻¹ s⁻¹ with mouse serum albumin [5].

B2: AVA04-251 XT60 (designed binder)
chain: MIPRGLSEAKPATPEIQEIVDKVKPQLEEKTNETYGKLEAVQYKTQVLAREGRQDWVLSTNYYIKVRAGDNKYMHLKVFNGPWVPFPHQQLADRVLTGYQVDKNKDDELTGFAEAAAKEAAAKEAAAKEAAAKEAAAKEAAAKMIPRGLSEAKPATPEIQEIVDKVKPQLEEKTNETYGKLEAVQYKTQVLAREGRQDWVLSTNYYIKVRAGDNKYMHLKVFNGPWVPFPHQQLADRVLTGYQVDKNKDDELTGFAEAAAKEAAAKEAAAKEAAAKEAAAKEAAAKMIPRGLSEAKPATPEIQEIVDKVKPQLEEKTNETYGKLEAVQYKTQVLADWWQAKWPHSTNYYIKVRAGDNKYMHLKVFNGPYKVHQSSGGADRVLTGYQVDKNKDDELTGFHHHHHH
As for B2, the EC50 with mouse serum albumin [1] was 134 nM; with human serum albumin [6], 5.7 nM. The Kd in the assay with human serum albumin [2] came to 67.8 nM; in assay [3], 0.558 nM; with human serum albumin [4], 661 nM; with mouse serum albumin [5], 108 nM. In addition, the koff in the assay with human serum albumin [2] was found to be 0.00339 s⁻¹; in assay [3], 0.000331 s⁻¹; with human serum albumin [4], 0.00846 s⁻¹; with mouse serum albumin [5] it was 0.0326 s⁻¹. The kon with human serum albumin [2] turned out to be 50100 M⁻¹ s⁻¹; in assay [3] it was 594000 M⁻¹ s⁻¹; in the assay with human serum albumin [4] it was 12800 M⁻¹ s⁻¹; with mouse serum albumin [5], 301000 M⁻¹ s⁻¹.
